B1: Mut OPN/NF-kB (dsDNA)
DNA 1: GAATTTCATGCGGACTTCGAAATTCTAAG
DNA 2: CTTAGAATTTCGAAGTCCGCATGAAATTC
B2: OPN/NF-kB (dsDNA)
DNA 1: GAATTTCATGGGGAAGTCCAAATTCTAAG
DNA 2: CTTAGAATTTGGACTTCCCCATGAAATTC

Tests used:
Conditions in all cases: protein: commercial; chain copies: 2; label: biotin; only one strand given
[1] = biological target: T1, p65 (RelA) (Homo sapiens, UniProt Q04206 1-551); test: EMSA; 10 mM Tris, 50 mM KCl, 1 mM DTT, 5 mM MgCl2, 1 ug poly(dI-dC), 20 fmol biotinylated probe, 100 ng p65 or 66 ng p50, room temperature 30 min; pH not stated
[2] = biological target: p50 (Homo sapiens, UniProt P19838 1-433); test: as above
[3] = biological target: T1, p65 (RelA); test: EMSA; supershift with anti-p65 (lane 6); 10 mM Tris, 50 mM KCl, 1 mM DTT, 5 mM MgCl2, 1 ug poly(dI-dC), 20 fmol biotinylated probe, 100 ng p65 or 66 ng p50, room temperature 30 min; pH not stated

T1 sequence (Q04206 whole entry): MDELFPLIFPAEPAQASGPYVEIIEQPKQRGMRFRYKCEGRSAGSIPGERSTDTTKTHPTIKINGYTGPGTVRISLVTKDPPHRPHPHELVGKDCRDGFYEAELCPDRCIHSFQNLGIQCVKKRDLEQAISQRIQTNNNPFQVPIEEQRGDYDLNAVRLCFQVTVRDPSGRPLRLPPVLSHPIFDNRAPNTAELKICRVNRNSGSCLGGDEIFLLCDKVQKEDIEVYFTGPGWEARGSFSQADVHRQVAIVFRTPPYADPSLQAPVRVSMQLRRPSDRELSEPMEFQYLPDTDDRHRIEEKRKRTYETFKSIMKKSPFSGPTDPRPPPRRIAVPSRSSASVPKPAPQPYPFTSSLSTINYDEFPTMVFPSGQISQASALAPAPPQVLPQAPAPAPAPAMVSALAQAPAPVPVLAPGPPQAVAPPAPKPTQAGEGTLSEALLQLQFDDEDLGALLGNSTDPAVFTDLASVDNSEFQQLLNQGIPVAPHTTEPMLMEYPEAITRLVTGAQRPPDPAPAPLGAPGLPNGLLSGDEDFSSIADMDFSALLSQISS
Sequence of p50 (P19838 1-433): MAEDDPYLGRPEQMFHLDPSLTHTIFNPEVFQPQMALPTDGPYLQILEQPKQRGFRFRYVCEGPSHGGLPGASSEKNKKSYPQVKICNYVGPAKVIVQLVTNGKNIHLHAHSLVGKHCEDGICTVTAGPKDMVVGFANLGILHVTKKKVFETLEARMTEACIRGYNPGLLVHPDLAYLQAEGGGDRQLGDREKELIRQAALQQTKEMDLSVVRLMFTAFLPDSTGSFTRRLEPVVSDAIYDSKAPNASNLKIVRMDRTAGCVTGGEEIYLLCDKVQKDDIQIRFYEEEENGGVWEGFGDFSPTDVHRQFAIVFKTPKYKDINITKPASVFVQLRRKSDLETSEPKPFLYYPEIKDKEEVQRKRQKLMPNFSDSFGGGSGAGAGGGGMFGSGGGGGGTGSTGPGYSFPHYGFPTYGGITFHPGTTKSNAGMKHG

Row | Binder | binding result [1] | binding result [2] | binding result [3]
1 | B1 | no binding | no binding | –
2 | B2 | – | binds | binds

From publication PMC1796551, “Breast cancer metastasis suppressor 1 (BRMS1) inhibits osteopontin transcription by abrogating NF-κB activation”
